Measurements published in doi:10.1101/2022.09.15.508177.

Tests used:
[1] = molecular target: CTCF (CCCTC-binding factor), full-length, wild type, C-terminal MBP-Flag tag (human) (UniProt P49711); test: single-molecule co-localisation on DNA curtains
[2] = molecular target: CTCF (CCCTC-binding factor), full-length, wild type, C-terminal MBP-Flag tag (human) (UniProt P49711)
[3] = molecular target: CTCF truncation mutant that only includes the 11 Zn-fingers (human); test: single-molecule co-localisation on DNA curtains
[4] = molecular target: CTCF(Y226A/F228A) (human) (UniProt P49711); test: single-molecule co-localisation on DNA curtains

Sequence of CTCF truncation mutant that only includes the 11 Zn-fingers (human) (P49711 266-577, stated change not applied): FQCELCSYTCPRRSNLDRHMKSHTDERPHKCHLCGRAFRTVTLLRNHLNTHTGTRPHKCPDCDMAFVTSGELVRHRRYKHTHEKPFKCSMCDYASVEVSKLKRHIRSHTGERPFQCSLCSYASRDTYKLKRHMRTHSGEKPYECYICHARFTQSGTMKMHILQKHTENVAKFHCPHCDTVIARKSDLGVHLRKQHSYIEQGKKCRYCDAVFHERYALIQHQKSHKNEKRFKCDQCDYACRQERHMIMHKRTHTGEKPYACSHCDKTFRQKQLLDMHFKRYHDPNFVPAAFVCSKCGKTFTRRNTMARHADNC

| percent of CTCF^N foci that retained cohesin [1] | cohesin velocity after non-permissive (CTCF^N) collision [2] | cohesin velocity after permissive (CTCF^C) collision [2] | percent co-localised [3] | percent co-localised [4] | Substance |
| --- | --- | --- | --- | --- | --- |
| 47% | – | – | – | – | cohesin-NIPBL^C with STAG1(W337A/F347A) (from UniProt Q14683;Q9UQE7;O60216;Q8WVM7;Q6KC79) (complex) |
| – | 0.2 bp s^-1 | 1.42 bp s^-1 | < 50% | < 50% | cohesin-NIPBL^C (SMC1, SMC3, RAD21, STAG1 with NIPBL^C), wild type (from UniProt Q14683;Q9UQE7;O60216;Q8WVM7;Q6KC79) (complex) |
